Test results published in publication PMC10204903 (Cell, 2022).

B1: mAb 9.20.1C3 (antibody, V domains shown)
VH: QVQLVQSGAEVKKPGSSVKVACKVSGGTFSSYTISWVRQAPGQGLEWMGGIIPSFGVGHYSQKFRDRVTLTADKSTTTAFLELSSVRSEDTALYYCAILGTFNWKSGGNYFGPWGQGTLVTVSS
VL: DIVLTQSPDSLAASLGERATISCKSSHSVLYSSNNKDFFAWYQQKPGQPPKLLISWASTRESGVPVRFNGGGSGTHFTLTISSLQAEDVAVYYCQQYFSSPITFGQGTRLEIK
B2: mAb 5.24.1C11 (antibody, V domains shown)
VH: QVQLVQSGAEVKKPGASVKVSCRTSGYTFSSYNIHWVRQAPGQGLEWMGVINPYGRSTTLYARRFRDRVTMTRDTSTSTVYMELSSLRSEDTAVYFCGRLYSGAPYGLDVWGQGSTVTVSS
VL: DIVMTQSPLSLPVTPGEPASISCRSSQSLLHSNGYNYVDWYLQKPGQSPQLLIYLGSSRASGVPDRFSGSGSGTDFTLKISRVETEDVGIYYCMQGLQTPLTFGGGTKVEIK

Columns and labels:
Assay in all cases: ELISA
BDBV GP ectodomain = BDBV GP ectodomain (Bundibugyo virus; strain of the bought …, UniProt B8XCN0)
[1] = target: EBOV soluble glycoprotein (sGP) (Ebola virus (EBOV), UniProt P60170)
SUDV GP ectodomain = SUDV GP ectodomain (Sudan virus (SUDV), UniProt Q7T9D9)

Row | Binder | binding result (BDBV GP ectodomain) | binding result [1] | binding result (SUDV GP ectodomain)
1 | B1 | binds | no binding | binds
2 | B2 | binds | no binding | binds
